From paper PMC11645210 come the findings set out here.

The target in the experiment is Shaanxi2011 RBD (bat sarbecovirus Shaanxi2011). Nature of the experiment: SPR. On the technique in general: Surface plasmon resonance follows binding to a sensor surface in real time, without labels.

For VIR-7229 Fab fragment, the equilibrium dissociation constant (Kd) (commonly the equilibrium constant for the complex coming apart) is 185 nM; the off-rate constant (koff) – broadly, a measure of how fast the partners let go of each other – came to 0.00985 s⁻¹; the kon (in general, a measure of how fast the partners come together) amounted to 53500 M⁻¹ s⁻¹.
